Positions count from the first letter of the chain named.
B1: AC_05293 (bispecific antibody)
heavy 1: not shown
light: DIQMTQSPSSLSASVGDRVTITCRASQSISSYLNWYQEKPGKAPKLLIYAASSLQSGVPSRFSGSGSGTDFTLTISSLQPEDFATYYCQQYGRNPPTFGQGTKLEIKRTVAAPSVFIFPPSDEQLKSGTASVVCYLNNFYPREAKVQWKVDNALQSGNSQESVTEQDSKDSTYSLWSTLTLSKADYEKHKVYACEVTHQGLSSPVTKSFNRGEC
heavy 2: EVQLLEQSGAELVRPGTSVKISCKASGYAFTNYWLGWVKERPGHGLEWIGDIFPGSGNIHYNEKFKGKATLTADKSSSTAYMQLSSLTFEDSAVYFCARLRNWDEPMDYWGQGTTVTVSSASTKGPSVFPLAPSSKSTSGGTAALGCLVKDYFPEPVTVSWNSGALTSGVHTFPAVLQSSGLYSLSSVVEVPSSSLGTQTYICNVNHKPSNTKVDKKVEPKSC
B2: AC_05300 (bispecific antibody)
heavy 1: not shown
light: ELVMTQSPSSLTVTAGEKVTMSCKSSQSLLNSGNQKNYLTWYQEKPGQPPKLLIYWASTRESGVPDRFTGSGSGTDFTLTISSVQAEDLAVYYCQNDYSYPLTFGAGTKLEIKRTVAAPSVFIFPPSDEQLKSGTASVVCYLNNFYPREAKVQWKVDNALQSGNSQESVTEQDSKDSTYSLWSTLTLSKADYEKHKVYACEVTHQGLSSPVTKSFNRGEC
heavy 2: EVQLLESGGGLVQPGGSLRLSCAASGFTFSSYAMSWVREAPGKGLEWVSGIGSYGGGTYYADSVKGRFTISRDNSKNTLYLQMNSLRAEDTAVYYCARYVNFGMDYWGQGTLVTVSSASTKGPSVFPLAPSSKSTSGGTAALGCLVKDYFPEPVTVSWNSGALTSGVHTFPAVLQSSGLYSLSSVVEVPSSSLGTQTYICNVNHKPSNTKVDKKVEPKSC
notes: as AC_05293
B3: AC_05330 (bispecific antibody)
heavy 1: not shown
light: not shown
heavy 2: EVQLLESGGGLVQPGGSLRLSCAASGFTFSSYAMSWVREAPGKGLEWVSAISGSGGSTYYADSVKGRFTISRDNSKNTLYLQMNSLRAEDTAVYYCARYYGGYYSAWMDYWGQGTLVTVSSASTKGPSVFPLAPSSKSTSGGTAALGCLVKDYFPEPVTVSWNSGALTSGVHTFPAVLQSSGLYSLSSVVEVPSSSLGTQTYICNVNHKPSNTKVDKKVEPKSC
notes: as AC_05293
B4: AC_05079 (antibody, human IgG1, kappa, V domains shown)
VH: EVQLLESGGGLVQPGGSLRLSCAASGFTFSSSYMGWVRQAPGKGLEWVSSIGSGSYSTSYADSVKGRFTISRDNSKNTLYLQMNSLRAEDTAVYYCARYPSVPFPPPLDYWGQGTLVTVSS
VL: DIQMTQSPSSLSASVGDRVTITCRASQSISSYLNWYQQKPGKAPKLLIYAASSLQSGVPSRFSGSGSGTDFTLTISSLQPEDFATYYCQQAGNPHTFGQGTKLEIKR
B5: AC_05086 (antibody, V domains shown)
VH: B4 VH with R98H, P107H
VL: DIQMTQSPSSLSASVGDRVTITCRASQSISSYLNWYQQKPGKAPKLLIYAASSLQSGVPSRFSGSGSGTDFTLTISSLQPEDFATYYCQQAGNPHTFGQGTKLEIK
B6: AC_05087 (antibody, V domains shown)
VH: B4 VH with S101P, P107H
VL: B5 VL
B7: AC_05092 (antibody, V domains shown)
VH: B4 VH with P107H
VL: B5 VL with Y32D
B8: AC_05095 (antibody, V domains shown)
VH: B4 VH with P106S, P107H
VL: B5 VL
B9: AC_05096 (antibody, human IgG1, kappa, V domains shown)
VH: B4 VH with P105R, P107H
VL: B4 VL
B10: AC_05083 (antibody, V domains shown)
VH: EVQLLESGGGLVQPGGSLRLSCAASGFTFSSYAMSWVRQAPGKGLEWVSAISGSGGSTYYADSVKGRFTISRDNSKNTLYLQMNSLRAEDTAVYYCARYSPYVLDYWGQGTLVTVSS
VL: DIQMTQSPSSLSASVGDRVTITCRASQSIRGYLNWYQQKPGKAPKLLIYAASSLQSGVPSRFSGSGSGTDFTLTISSLQPEDFATYYCQQPSYPSLFTFGQGTKLEIK
B11: AC_05098 (antibody, V domains shown)
VH: EVQLLESGGGLVQPGGSLRLSCAASGFTFGSYYMSWVRQAPGKGLEWVSGISGYGYYTGYADSVKGRFTISRDNSKNTLYLQMNSLRAEDTAVYYCARNGYGVIDYWGQGTLVTVSS
VL: B5 VL with S30R, S31D, A91G, G92T, N93F, H95F
B12: AC_05082 (antibody, V domains shown)
VH: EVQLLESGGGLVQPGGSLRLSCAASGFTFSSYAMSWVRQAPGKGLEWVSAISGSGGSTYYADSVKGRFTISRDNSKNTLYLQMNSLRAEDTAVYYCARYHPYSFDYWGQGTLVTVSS
VL: B5 VL
B13: AC_05100 (antibody, V domains shown)
VH: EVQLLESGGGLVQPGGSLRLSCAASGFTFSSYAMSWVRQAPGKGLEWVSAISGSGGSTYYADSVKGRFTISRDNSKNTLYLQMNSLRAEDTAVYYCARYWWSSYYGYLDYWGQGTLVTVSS
VL: B5 VL
B14: AC_05084 (antibody, V domains shown)
VH: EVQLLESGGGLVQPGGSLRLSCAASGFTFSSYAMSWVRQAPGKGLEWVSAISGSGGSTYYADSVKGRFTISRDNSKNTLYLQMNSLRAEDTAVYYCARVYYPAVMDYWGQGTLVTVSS
VL: B5 VL with A91V, G92D, N93G, P94L, H95F
B15: AC_05085 (antibody, V domains shown)
VH: EVQLLESGGGLVQPGGSLRLSCAASGFTFGSYYMYWVRQAPGKGLEWVSSIGGYSGSTYYADSVKGRFTISRDNSKNTLYLQMNSLRAEDTAVYYCARNTPFPGGSGLDYWGQGTLVTVSS
VL: B5 VL

What follows are binders tested against T1, biotinylated human CD40-mouse Fc (Ancell #504-030) (human, UniProt P25942 21-193, biotinylated (site not stated)) (assay: Octet BLI, captured CD40mFc-biotin, bsAb in solution, 1:1 fit).
T1 construct: Bought; also called hCD40-muIg; CD40mFc-biotin; not shown: mouse Ig Fc
T1 sequence (P25942 21-193): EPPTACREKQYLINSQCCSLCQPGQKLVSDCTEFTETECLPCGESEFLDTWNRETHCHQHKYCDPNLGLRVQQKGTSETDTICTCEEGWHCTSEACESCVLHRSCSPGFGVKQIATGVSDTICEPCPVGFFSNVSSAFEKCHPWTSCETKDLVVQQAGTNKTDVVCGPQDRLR
Method: Kinetic measurements were performed in the Octet RED96 platform using several different setups. […] Monomeric human CD40-His-Avi tag (Acro Biosystems #CD0-H5228), monomeric Human CEACAM5-His (R&D Systems #4128-CM-050) or monomeric Cynomolgus CEACAM5-His (Sino Biological #90891-C08H) were ½ serially diluted in 1× kinetic buffer (Sartorius) starting at 500 nM or 100 nM. […] Binding kinetics was studied in 1× kinetic buffer where association was allowed for 100 sec, 300 sec or 600 sec followed by dissociation for 100 sec, 300 sec or 3600 sec. Sensor tips were regenerated with 10 mM Glycine pH 1.7. Data generated were referenced by subtracting blank or parallel buffer blank, the baseline was aligned to the y-axis, inter-step correction by alignment against dissociation was performed and the data was smoothed by Savitzky-Golay filter in the data analysis software (v9.0.0.14). The processed data was fitted using a 1:1 Langmuir binding model with R² or X² as a measurement of fitting accuracy.
TABLE 12 Summary of kinetic profiles measured in Octet. Bispecific antibodies in solution (25-0.8 nM, 10-2 or 5-0.7 nM.) interacting with captured CD40mFc-biotin. Association was measured for 300 sec or 600 sec and dissociation was measured for 300 sec or 3600 sec
With B1 the Kd was 76 nM, the koff was 0.00062 s⁻¹ and the kon was 8300 M⁻¹ s⁻¹.
Binder B2 has a Kd of 8.5 nM, a koff of 0.0046 s⁻¹ and a kon of 540000 M⁻¹ s⁻¹.
In the case of B3, the Kd is reported as 0.45 nM, the koff is reported as 1.6e-05 s⁻¹ and the kon is reported as 35000 M⁻¹ s⁻¹.

The binders below were run against T2, human CEACAM5, recombinant (R&D Systems #4128-CM-050) (human, UniProt P06731 35-685) (assay: ELISA, antigen coated at 0.5 µg/mL, IgG1 antibody at 10 µg/ml, anti-human kappa-HRP, luminescence).
T2 construct: Bought; coated in ELISA and used as monomeric analyte in Octet; also called hCEACAM-5; Human CEACAM5-His; not shown: His tag
T2 sequence (looked up): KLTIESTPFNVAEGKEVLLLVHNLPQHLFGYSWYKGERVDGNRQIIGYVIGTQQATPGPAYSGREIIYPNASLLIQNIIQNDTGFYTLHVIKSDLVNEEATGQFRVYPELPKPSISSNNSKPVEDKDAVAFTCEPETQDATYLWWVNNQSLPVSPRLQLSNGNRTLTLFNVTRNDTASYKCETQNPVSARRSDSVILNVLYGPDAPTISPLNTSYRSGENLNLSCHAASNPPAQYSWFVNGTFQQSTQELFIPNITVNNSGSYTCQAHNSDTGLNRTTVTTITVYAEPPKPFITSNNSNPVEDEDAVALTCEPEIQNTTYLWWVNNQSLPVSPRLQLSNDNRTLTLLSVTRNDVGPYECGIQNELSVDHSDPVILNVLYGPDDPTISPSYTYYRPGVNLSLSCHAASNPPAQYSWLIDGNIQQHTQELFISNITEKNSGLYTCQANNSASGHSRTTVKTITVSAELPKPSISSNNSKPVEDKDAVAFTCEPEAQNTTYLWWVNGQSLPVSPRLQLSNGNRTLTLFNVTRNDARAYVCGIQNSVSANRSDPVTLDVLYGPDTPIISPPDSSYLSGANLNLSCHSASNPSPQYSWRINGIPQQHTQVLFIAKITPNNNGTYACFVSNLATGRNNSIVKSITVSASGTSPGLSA
Method: (§1) 96-well plates were coated with 0.5 μg/mL antigen, hCEACAM-5 (4128-CM-050, R&D Systems), hCEACAM-1 (2244-CM-050, R&D Systems), hCEACAM-6(3934-CM-050, R&D Systems) or CEACAM-8 (9639-CM-050, R&D Systems) in PBS over night at 4° C. After washing with PBS/0.05% Tween 20 (PBST), the plates were blocked with PBST, 2% BSA for at least 30 minutes at room temperature before a second round of washing. […] After washing, plates were incubated with 50 μl detection antibody (0.5 μg/ml HRP conjugated goat anti human-kappa light chain, #STAR127P, AbD Serotec). Finally, a final round of washing was performed and bound complexes detected using SuperSignal Pico Luminescent as substrate and luminescence signals were measured using Fluostar Optima.
B4: binds.
B5: binds.
B6: binds.
B7: no binding (tested: 10 µg/ml).
B8: binds.
B9: binds.
B10: binds.
B11: no binding (tested: 10 µg/ml).
B12: no binding (tested: 10 µg/ml).
B13: no binding (tested: 10 µg/ml).
B14: no binding (tested: 10 µg/ml).
B15: no binding (tested: 10 µg/ml).

Each binder was assayed against T3, human CEACAM1, recombinant (R&D Systems #2244-CM-050) (human, UniProt P13688 35-428) in the same assay as above.
T3 construct: also called hCEACAM-1
T3 sequence (looked up): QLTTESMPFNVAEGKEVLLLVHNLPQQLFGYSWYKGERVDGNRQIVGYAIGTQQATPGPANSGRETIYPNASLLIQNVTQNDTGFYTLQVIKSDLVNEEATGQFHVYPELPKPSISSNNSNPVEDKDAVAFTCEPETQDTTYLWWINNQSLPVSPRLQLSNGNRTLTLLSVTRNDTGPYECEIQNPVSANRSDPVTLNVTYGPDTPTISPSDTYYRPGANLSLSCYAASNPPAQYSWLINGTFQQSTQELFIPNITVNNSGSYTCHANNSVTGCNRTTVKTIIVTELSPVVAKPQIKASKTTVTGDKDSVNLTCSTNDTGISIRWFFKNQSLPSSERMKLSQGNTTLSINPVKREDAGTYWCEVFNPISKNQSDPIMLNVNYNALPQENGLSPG
Method: as §1
B4: no binding (tested: 10 µg/ml).
B5: binds.
B6: binds.
B7: no binding (tested: 10 µg/ml).
B8: binds.
B9: no binding (tested: 10 µg/ml).
B10: binds.
B11: no binding (tested: 10 µg/ml).
B12: no binding (tested: 10 µg/ml).
B13: no binding (tested: 10 µg/ml).
B14: no binding (tested: 10 µg/ml).
B15: no binding (tested: 10 µg/ml).
